# Test: soluble on expression in E. coli; label from the status in PepcDB or PDB records
row,Sequence,soluble on expression in E. coli
1,MLTKANPPPSKTSPLKVWAVSDGRAGIEAQVVGLAEAISRLAPCEVTVKRVGWQGNIGRLPWWLNLLPKRWLTQESGVPDSRNPDDWPDLWIAAGRATLPLSIRAKRWSGGKSFVVQIQDPRVPPHMFDLVIPPKHDRMSGDNILPITGSPHRVTPQRLAAEYEAFQDLIEPLPRPRVAVLVGGKSKAFDLSSERAAQIAHSIQIPLEQDGGSLLMTFSRRTPETARALMTARLRHLPGVVWNGEGPNPYFAFLAAADYILVTEDSTNMATEAASTGKPVFVLKMDGSSLKFRLFHEELERQGAARPYGGAFHGWTYTPVNETDRAAREVLARIGLEHHHHHH,not soluble
2,MGSDKIHHHHHHMGKFLKKHYIMAPGPTPVPNDILTEGAKETIHHRTPQFVSIMEETLESAKYIFQTKHNVYAFASTGTGAMEAAVANLVSPGDKVIVVVAGKFGERWRELCQAYGADIVEIALEWGDAVTPEQIEEALNKNPDAKVVFTTYSETSTGTVIDLEGIARVTKEKDVVLVTDAVSALGAEPLKMDEWGVDLVVTGSQKGLMLPPGLALISLNDKAWGLVEKSRSPRYYFDLRAYRKSYPDNPYTPAVNMIYMLRKALQMIKEEGIENVWERHRILGDATRAAVKALGLELLSKRPGNVVTAVKVPEGIDGKQIPKIMRDKYGVTIAGGQAKLKGKIFRIAHLGYMSPFDTITAISALELTLKELGYEFELGVGVKAAEAVFAKEFIGE,not soluble
3,MGSDKIHHHHHHMIQGKKVVSTLDVSDLEPGKKHLLYFQGVEMPTGQHWHVSVTVAKGAKPGKRGVLVSGVHGDEMSSVHTIQTVMSQLDPAQMSGTVMAVTDVSRPAMEGMQRRWPNFGRGTDLIDMNREWPGNENGVTAASRQAGLLFNRLLRPNADFAIDFHTGTTGFDVAAFNIGGMDVPEIKAMLELYPVGQIFDNHVYPSVLHNAFIAAGIPSFCPEIGAARVLDLEMISLFVEGTMNVLKHHGIVAGPMGRTGKDVHVFVGNSAFPILATAGGLVEHLVKLNDKVEAGQKLAIQRDSFGEVVAEYASGVAGEISGLRSDAMSEPGNPLVFVLFNKPGPEDVGGYPE,not soluble
4,MRGSHHHHHHPEYDYIRDGNAIYERSFAIIRAEADLSRFSEEEADLAVRMVHACGSVEATRQFVFSPDFVSSARAALKAGAPILCDAEMVAHGVTRARLPAGNEVICTLRDPRTPALAAEIGNTRSAAALKLWSERLAGSVVAIGNAPTALFFLLEMLRDGAPKPAAILGMPVGFVGAAESKDALAENSYGVPFAIVRGRLGGSAMTAAALNSLARPGL,soluble
5,MNYSLEDLPNSGKNPRVYMDIVLNNEIIGRLQIKLFRDAFPAGVENFVQLTNGKTYRVNSNGTGKYKYNRHINRTYEGCKFHNVLHNNYIVSGDIYNSNGSSAGTVYCDEPIPPVFGDYFYPHESKGLLSLVPYTDESGNRYYDSTFMITLDDIRPSNVLDELDRDQVVIGQVYGGLDVLDKINSMIKPYAGRKYPTFSIGKCGAYLDSSQAQRKRPVNVNGTKRFLNKPTRVN,soluble
6,SLQSNILAFTPPAPSASMNVNRTAVVSVTTKDSRAIQEIASYTKHGELIKLNASPSVTQLFQQVMQQNLISKGFRVGQLNGSNAWVTVDVREFGTQVEQGNLRYKLNTKIQATVYVQGAKGSYNKSFNVTHSQEGVFNAGNDEIHKVLSQTFNDIVNNIYQDQEVAAAINQYSN,soluble
7,MTRTYAMVGTPCQITAATLMDRYTEDFPVELKLGLFCMENFSYTYLKKLAEEEGIDLADVSELRIEKGRLWFHLNDGSKVSVSLERARAAMRKNCSVCMDFTSEQSDISIGSVGSPEGWSTIIIRTERGHELIEKARKAGYIETKPLTERGIRILEKLASGKKEDNLQEIKRRESVARPVLYWRVMPDEEYLEEVTDYQFDDLRSDVIDVGACVLCGACVASCPEDIVSIKDRKPEVEGTCPEGCNACYVACPRTYVPDSIIGHDSAITPLGEYIEILSARAPMFRGQDGGVVTALLTYALREGIIDGALVVDRDQERPWKPLPVLAEEPQDIVKAAGTKYSACPLLKVLKELEHHHHHH,soluble
8,MGSDKIHHHHHHMMENSLNIIEKMNPNQKINYDRVFQKVRESWERDSVRPKILLHSCCAPCSTYSLEYLTQSADVTIYFANSNIHPSTEYTRRKMVQEQFVKDFNERTGNNVQFIAAEYEPNVFLQMVRQKHLENEPEGGKRCTSCFEMRLDIVAEKALELGFDYFGSALTLSPKKNSQLINEIGLDIQKIYDVNYLPSDFKKNNGYKRSVEMCKEYDVYRQCYCGCIFAAKAQGIDLKEQNREAIKFIRNQS,not soluble
